Experimental findings from paper PMC9687980 (Bioengineering, 2022) are described below.

The target of assay [1] is T1, MBP-fused spike receptor binding domain of SARS-CoV-2 Omicron BA.1 (MBP-RBDomi) (SARS-CoV-2 Omicron BA.1 (GenBank …, strain)).
T1 construct: also called MBP-fused Omicron RBD; MBP-RBD_(omicron)
Description: ELISA; 4 ug of recombinant RBD immobilised on a high-binding plate; blocked with 4% skim milk; serial-diluted antibody in PBST; detected with Protein A-HRP, 450 nm. The settings on record: both partners purified. In general terms: An ELISA detects its analyte on a solid surface through an enzyme-linked reagent.

In assay [2] the target is T2, spike RBD of SARS-CoV-2 Omicron expressed in a mammalian system (SARS-CoV-2 Omicron, taken as BA.1, strain, N-linked glycans appended on N331 and N343).
T2 construct: also called Mammalian RBDomi; mammalian cell-expressing RBDomi
Described as above. The conditions noted are these: both partners purified.

B1: CR3022, human IgG1 (antibody, V domains shown)
VH: QMQLVQSGTEVKKPGESLKISCKGSGYGFITYWIGWVRQMPGKGLEWMGIIYPGDSETRYSPSFQGQVTISADKSINTAYLQWSSLKASDTAIYYCAGGSGISTPMDVWGQGTTVTV
VL: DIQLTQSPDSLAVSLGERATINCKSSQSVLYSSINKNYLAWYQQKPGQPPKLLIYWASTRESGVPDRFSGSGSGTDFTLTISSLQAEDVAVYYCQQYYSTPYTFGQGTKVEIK
notes: IgG1
In the case of B1, the binding result in assay [1] and in assay [2] was “binds” in each case.
